From publication PMC9482650, “Quantitative fragmentomics allow affinity mapping of interactomes” (Nature Communications, 2022)

Assays:
Assay in all cases: holdup assay
Set-up in all cases: key: below the threshold = too weak to quantify, mostly under pKd 3.1 to 4
[1] = biological target: CASK, O14936
[2] = biological target: T1, MPDZ_5, O75970
T1 sequence (O75970 695-796, limits assumed, looked up): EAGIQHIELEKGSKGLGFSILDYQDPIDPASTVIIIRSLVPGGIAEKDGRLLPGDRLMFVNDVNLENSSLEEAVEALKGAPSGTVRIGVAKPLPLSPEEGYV

[3] = biological target: GRID2IP_1, A4D2P6
Chain of GRID2IP_1, A4D2P6 (A4D2P6 1-87): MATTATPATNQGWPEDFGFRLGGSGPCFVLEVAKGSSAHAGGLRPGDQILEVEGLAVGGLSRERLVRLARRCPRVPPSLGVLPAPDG

[4] = biological target: T2, DFNB31_1, Q9P202
T2 sequence (Q9P202 135-233, limits assumed, looked up): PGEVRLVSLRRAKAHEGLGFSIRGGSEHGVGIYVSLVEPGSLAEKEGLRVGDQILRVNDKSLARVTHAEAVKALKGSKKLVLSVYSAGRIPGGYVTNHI

[5] = biological target: SCRIB_1, Q14160
Chain of SCRIB_1, Q14160 (Q14160 718-814): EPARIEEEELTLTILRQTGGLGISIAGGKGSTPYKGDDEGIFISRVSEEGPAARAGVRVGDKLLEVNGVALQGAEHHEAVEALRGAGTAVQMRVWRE

[6] = biological target: SCRIB_2, Q14160
Chain of SCRIB_2, Q14160 (Q14160 857-960): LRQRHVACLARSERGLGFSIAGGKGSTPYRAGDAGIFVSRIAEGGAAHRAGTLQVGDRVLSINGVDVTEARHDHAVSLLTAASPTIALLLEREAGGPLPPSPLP

[7] = biological target: Inadl_5, Q8NI35
Chain of Inadl_5, Q8NI35 (Q8NI35 673-780): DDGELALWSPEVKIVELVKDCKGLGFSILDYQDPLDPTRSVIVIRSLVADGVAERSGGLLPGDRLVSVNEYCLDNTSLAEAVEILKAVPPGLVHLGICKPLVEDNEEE

[8] = biological target: T3, LIN7A, O14910
T3 sequence (O14910 103-200, limits assumed, looked up): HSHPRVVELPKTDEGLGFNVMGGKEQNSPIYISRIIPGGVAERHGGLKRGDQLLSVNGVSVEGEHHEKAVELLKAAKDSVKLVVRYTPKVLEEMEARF

[9] = biological target: Inadl_1, Q8NI35
Chain of Inadl_1, Q8NI35 (Q8NI35 113-229): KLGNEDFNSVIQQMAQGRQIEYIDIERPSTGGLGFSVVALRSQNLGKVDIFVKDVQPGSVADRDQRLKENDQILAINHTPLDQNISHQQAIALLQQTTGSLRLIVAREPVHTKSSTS

[10] = biological target: MAGI2_3, Q86UL8
Chain of MAGI2_3, Q86UL8 (Q86UL8 600-682): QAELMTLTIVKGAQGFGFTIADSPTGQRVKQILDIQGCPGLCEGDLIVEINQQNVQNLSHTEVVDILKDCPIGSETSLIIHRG

[11] = biological target: IL16_3, Q14005
Chain of IL16_3, Q14005 (Q14005 1107-1207): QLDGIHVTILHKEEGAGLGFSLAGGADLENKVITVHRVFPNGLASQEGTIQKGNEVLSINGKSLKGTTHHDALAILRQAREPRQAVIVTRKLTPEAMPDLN

[12] = biological target: GRASP, Q7Z6J2
Chain of GRASP, Q7Z6J2 (Q7Z6J2 96-193): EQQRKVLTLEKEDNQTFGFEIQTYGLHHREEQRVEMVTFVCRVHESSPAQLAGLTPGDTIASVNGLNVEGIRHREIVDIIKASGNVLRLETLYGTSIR

[13] = biological target: GIPC2, Q8TF65
Chain of GIPC2, Q8TF65 (Q8TF65 112-203): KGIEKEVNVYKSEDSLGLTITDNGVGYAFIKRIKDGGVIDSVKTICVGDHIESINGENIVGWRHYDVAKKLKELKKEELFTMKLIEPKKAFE

[14] = biological target: FRMPD2_3, Q68DX3
Chain of FRMPD2_3, Q68DX3 (Q68DX3 1073-1166): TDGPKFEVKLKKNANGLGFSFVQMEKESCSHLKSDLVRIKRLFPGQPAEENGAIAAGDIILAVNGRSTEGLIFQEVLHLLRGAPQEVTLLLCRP

[15] = biological target: MAGI2_2, Q86UL8
Chain of MAGI2_2, Q86UL8 (Q86UL8 410-522): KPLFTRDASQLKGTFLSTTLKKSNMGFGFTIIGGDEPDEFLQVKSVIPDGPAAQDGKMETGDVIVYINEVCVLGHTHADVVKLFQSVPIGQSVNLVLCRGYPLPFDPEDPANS

[16] = biological target: GRIP2_3, Q9C0E4
Chain of GRIP2_3, Q9C0E4 (Q9C0E4 238-339): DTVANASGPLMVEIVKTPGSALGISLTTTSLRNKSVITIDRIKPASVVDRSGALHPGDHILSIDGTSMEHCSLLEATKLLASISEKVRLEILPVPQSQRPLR

[17] = biological target: T4, PARD3B_1, Q8TEW8
T4 sequence (Q8TEW8 196-299, limits assumed, looked up): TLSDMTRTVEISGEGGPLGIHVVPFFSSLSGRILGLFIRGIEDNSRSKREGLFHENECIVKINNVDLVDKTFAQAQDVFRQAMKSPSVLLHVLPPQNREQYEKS

[18] = biological target: DLG2_3, Q15700
[19] = biological target: T5, MPDZ_10, O75970; conditions: plain residues with an end cap or a label only (N-terminal biotin on a linker: ttds)
T5 sequence (O75970 1624-1722, limits assumed, looked up): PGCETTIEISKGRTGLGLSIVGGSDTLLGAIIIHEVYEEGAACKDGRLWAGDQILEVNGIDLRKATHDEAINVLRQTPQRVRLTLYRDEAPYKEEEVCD

[20] = biological target: T6, DLG3_1, Q92796
T6 sequence (Q92796 125-227, limits assumed, looked up): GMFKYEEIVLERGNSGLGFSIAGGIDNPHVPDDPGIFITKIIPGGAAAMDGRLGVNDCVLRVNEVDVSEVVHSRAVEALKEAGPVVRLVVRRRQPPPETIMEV

[21] = biological target: T7, RADIL, Q96JH8
T7 sequence (Q96JH8 971-1071, limits assumed, looked up): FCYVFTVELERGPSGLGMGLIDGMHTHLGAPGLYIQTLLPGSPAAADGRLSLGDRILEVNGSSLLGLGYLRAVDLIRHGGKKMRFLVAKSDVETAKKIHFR

[22] = biological target: PDLIM1, O00151
Chain of PDLIM1, O00151 (O00151 1-87): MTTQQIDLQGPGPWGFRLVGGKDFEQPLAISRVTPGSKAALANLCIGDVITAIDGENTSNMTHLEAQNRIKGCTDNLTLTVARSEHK

[23] = biological target: TJP2_1, Q9UDY2
Chain of TJP2_1, Q9UDY2 (Q9UDY2 24-128): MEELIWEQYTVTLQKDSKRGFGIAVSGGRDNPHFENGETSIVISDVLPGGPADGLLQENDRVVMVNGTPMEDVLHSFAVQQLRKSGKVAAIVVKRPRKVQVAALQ

[24] = biological target: T8, FRMPD1, Q5SYB0
T8 sequence (Q5SYB0 52-145, limits assumed, looked up): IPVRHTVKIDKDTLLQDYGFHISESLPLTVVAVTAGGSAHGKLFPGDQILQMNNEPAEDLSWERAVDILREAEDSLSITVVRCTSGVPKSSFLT

[25] = biological target: MAGI1_1, Q96QZ7
Chain of MAGI1_1, Q96QZ7 (Q96QZ7 1-106): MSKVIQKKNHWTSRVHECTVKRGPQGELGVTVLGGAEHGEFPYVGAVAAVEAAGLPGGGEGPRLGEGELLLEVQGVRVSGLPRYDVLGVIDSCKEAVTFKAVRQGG

[26] = biological target: T9, DFNB31_2, Q9P202
T9 sequence (Q9P202 274-371, limits assumed, looked up): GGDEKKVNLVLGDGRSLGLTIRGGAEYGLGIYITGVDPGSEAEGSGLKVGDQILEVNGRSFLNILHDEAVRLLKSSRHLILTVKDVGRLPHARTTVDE

[27] = biological target: T10, NHERF3_1, Q5T2W1
T10 sequence (Q5T2W1 4-100, limits assumed, looked up): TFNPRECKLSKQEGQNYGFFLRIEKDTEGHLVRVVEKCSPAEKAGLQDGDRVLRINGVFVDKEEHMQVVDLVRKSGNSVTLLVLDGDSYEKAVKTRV

[28] = biological target: Inadl_10, Q8NI35
Chain of Inadl_10, Q8NI35 (Q8NI35 1673-1763): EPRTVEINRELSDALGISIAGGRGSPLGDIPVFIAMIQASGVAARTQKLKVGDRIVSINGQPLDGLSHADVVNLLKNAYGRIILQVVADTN

[29] = plain residues with an end cap or a label only (N-terminal biotin on a linker: ttds)
[30] = plain residues with an end cap or a label only (N-terminal biotin on a linker: ahx)

Chain of CASK, O14936 (O14936 487-570): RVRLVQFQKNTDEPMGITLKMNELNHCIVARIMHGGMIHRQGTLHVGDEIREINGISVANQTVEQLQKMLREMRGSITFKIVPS

B1: PPP1R13L, Q8WUF5 (peptide)
chain: PRVKPQRSKV
pKd [1, 29]: below the threshold
pKd [2, 29]: below the threshold
pKd [3, 29]: below the threshold
pKd [4, 29]: below the threshold
pKd [5, 29]: below the threshold
pKd [6, 29]: below the threshold
pKd [7, 29]: below the threshold
pKd [8, 29]: below the threshold
pKd [9, 29]: 3.66
pKd [10, 29]: below the threshold
pKd [11, 29]: below the threshold
pKd [12, 29]: 4.39
pKd [13, 29]: below the threshold
pKd [14, 29]: below the threshold
pKd [15, 29]: 3.79
pKd [16, 29]: below the threshold
pKd [17, 29]: below the threshold
pKd [18, 29]: below the threshold
pKd [19]: below the threshold
pKd [20, 29]: below the threshold
pKd [21, 29]: below the threshold
pKd [22, 29]: below the threshold
pKd [23, 29]: below the threshold
pKd [24, 29]: below the threshold
pKd [25, 29]: below the threshold
pKd [26, 29]: below the threshold
pKd [27, 29]: below the threshold
pKd [28, 29]: below the threshold

B2: ARHGEF7, Q14155;Q14155-1 (peptide)
chain: NDPAWDETNL
pKd [1, 29]: below the threshold
pKd [2, 29]: below the threshold
pKd [3, 29]: below the threshold
pKd [4, 29]: 4.07
pKd [5, 29]: 5.5
pKd [6, 29]: 4.68
pKd [7, 29]: below the threshold
pKd [8, 29]: below the threshold
pKd [10, 29]: below the threshold
pKd [11, 29]: below the threshold
pKd [12, 29]: below the threshold
pKd [14, 29]: below the threshold
pKd [15, 29]: below the threshold
pKd [16, 29]: below the threshold
pKd [18, 29]: below the threshold
pKd [19]: below the threshold
pKd [20, 29]: below the threshold
pKd [21, 29]: below the threshold
pKd [22, 29]: below the threshold
pKd [23, 29]: below the threshold
pKd [24, 29]: below the threshold
pKd [25, 29]: below the threshold
pKd [26, 29]: below the threshold
pKd [27, 29]: 4.26
pKd [28, 29]: below the threshold

B3: PLCB4, Q15147 (peptide)
chain: EMDRRPATVV
pKd [1, 29]: below the threshold
pKd [2, 29]: 3.66
pKd [3, 29]: below the threshold
pKd [4, 29]: 3.53
pKd [5, 29]: 3.84
pKd [6, 29]: below the threshold
pKd [8, 29]: below the threshold
pKd [10, 29]: below the threshold
pKd [11, 29]: below the threshold
pKd [12, 29]: 4.01
pKd [13, 29]: 3.48
pKd [14, 29]: 4.01
pKd [15, 29]: 4.31
pKd [16, 29]: below the threshold
pKd [17, 29]: 3.68
pKd [18, 29]: 3.86
pKd [19]: 3.7
pKd [20, 29]: below the threshold
pKd [21, 29]: 3.99
pKd [22, 29]: below the threshold
pKd [23, 29]: below the threshold
pKd [24, 29]: 3.61
pKd [25, 29]: below the threshold
pKd [26, 29]: 3.51

B4: PDLIM4, P50479;P50479-2 (peptide)
chain: PSASCAVTAA
pKd [1, 30]: below the threshold
pKd [2, 30]: below the threshold
pKd [3, 30]: below the threshold
pKd [4, 30]: below the threshold
pKd [5, 30]: below the threshold
pKd [6, 30]: below the threshold
pKd [7, 30]: below the threshold
pKd [8, 30]: below the threshold
pKd [9, 30]: below the threshold
pKd [10, 30]: below the threshold
pKd [11, 30]: below the threshold
pKd [12, 30]: below the threshold
pKd [13, 30]: below the threshold
pKd [14, 30]: below the threshold
pKd [15, 30]: below the threshold
pKd [16, 30]: below the threshold
pKd [17, 30]: below the threshold
pKd [18, 30]: below the threshold
pKd [20, 30]: below the threshold
pKd [21, 30]: below the threshold
pKd [22, 30]: below the threshold
pKd [23, 30]: below the threshold
pKd [24, 30]: below the threshold
pKd [25, 30]: below the threshold
pKd [26, 30]: below the threshold
pKd [27, 30]: below the threshold
pKd [28, 30]: below the threshold
